Literature values, collected in patent US5223421A, “Identification of methionine Nα-acetyltransferase” (The General Hospital Corporation, priority 1990, dated 1993).

Target: T1, yeast methionine acetyltransferase (M-N^α AT) (Saccharomyces cerevisiae, UniProt Q06504)
T1 construct: a crude yeast homogenate from the aaa1 mutant strain; endogenous in cells; host or cells: Saccharomyces cerevisiae strain T3A-a (aaa1), crude lysate
T1 sequence (Q06504 1-195): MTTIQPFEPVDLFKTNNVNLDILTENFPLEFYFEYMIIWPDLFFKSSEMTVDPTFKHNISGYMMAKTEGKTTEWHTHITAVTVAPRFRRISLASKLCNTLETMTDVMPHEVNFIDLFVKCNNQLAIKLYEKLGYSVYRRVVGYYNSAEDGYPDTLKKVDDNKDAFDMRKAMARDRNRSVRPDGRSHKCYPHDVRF
T1 sequence (Q12387 2-796 partner limits assumed): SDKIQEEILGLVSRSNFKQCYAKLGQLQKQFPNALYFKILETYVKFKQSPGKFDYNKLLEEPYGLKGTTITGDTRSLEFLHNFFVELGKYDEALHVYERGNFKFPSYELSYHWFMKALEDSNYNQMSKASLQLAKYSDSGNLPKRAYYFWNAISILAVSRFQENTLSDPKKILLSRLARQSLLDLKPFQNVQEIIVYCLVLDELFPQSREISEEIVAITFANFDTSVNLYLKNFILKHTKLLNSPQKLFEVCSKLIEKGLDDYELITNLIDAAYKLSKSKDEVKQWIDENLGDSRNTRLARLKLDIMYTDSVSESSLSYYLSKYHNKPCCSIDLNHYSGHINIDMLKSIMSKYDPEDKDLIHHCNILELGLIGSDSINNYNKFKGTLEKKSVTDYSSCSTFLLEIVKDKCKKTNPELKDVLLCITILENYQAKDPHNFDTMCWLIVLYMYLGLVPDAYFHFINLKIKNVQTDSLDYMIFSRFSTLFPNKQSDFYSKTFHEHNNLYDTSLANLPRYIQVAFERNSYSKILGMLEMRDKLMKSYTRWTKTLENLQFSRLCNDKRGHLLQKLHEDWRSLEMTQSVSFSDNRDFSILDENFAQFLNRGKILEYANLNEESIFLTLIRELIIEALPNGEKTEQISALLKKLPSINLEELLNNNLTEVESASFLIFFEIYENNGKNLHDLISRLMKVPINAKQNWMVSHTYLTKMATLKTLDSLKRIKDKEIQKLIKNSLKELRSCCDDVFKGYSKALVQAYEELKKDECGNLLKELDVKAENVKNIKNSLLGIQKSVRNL
Conditions: Lee et al., J. Biol. Chem. 265:3603-3606 (1990); cited from earlier work

24 residue synthetic peptide mimicking the NH2 terminus of yeast actin: 24 residue synthetic peptide mimicking the NH2 terminus of yeast actin (MDSEVAALVIDNGSGMCKAGFAGD; UniProt P60010 1-24, looked up, fragment)
N^α -acetylation by yeast M-N^α AT: will acetylate
